Reference: the DeepSol protein solubility set

assay: soluble on expression in E. coli; label from the status in PepcDB or PDB records

Row | Sequence | soluble on expression in E. coli
1 | MAVIVKYVVERNGEEKMTFTSKAEADAYDKMLDMADELFELLGKSALIEDEAKQEELAMFLAQNKEDVLCALGAKRKPAPATGKKPKAVADSDDDESVDDAA | not soluble
2 | MSLDTTGITPTSIRIGSTSPQSGPVSAYGVQARCQAAYFKMINDRGGIAGRKIDFIYYDDAFNPAKTVEQTRKLVESDEVALLFSNLGTATNSAIVKYANAKKIPHLFLSVNGDKWSDYKAHPWSIGFAPSARTEAAIFVKHMLAEKPDAKFAVLYQNDDFGKDFVLGAKDVLGERESRQLVTISHETSDPTIDSQILQLRAAAPDALISGTTAKFTAQAIRKVAETRWQVRHYITGGSSSYAGTIGPAGPENAVGVISSAYLKDVADPAWKDDQGIKDFLAFMQSYFPEGNKDDFYNLYAYTVASALVKVLTQCGDGWTRENIMAQATNLKDVELPTLLPGIRVNTSPTDYRPLTQVQLQKWDGKAWVRFGDVLGAEGHHHHHH | soluble
3 | MGSDKIHHHHHHMKETVYFGTYTRRTSQGIYKADFDTETGQLSNLELFAAEPSPTYLAFDQHQHLYTVGSQDDKGGIAAYQTDGTVLNHVVEEGAPHCYVAVDEKRDLVYAANYHKGQVLVYKRQEDGSLLLSDMDQHSGQGPHENQASPHVHYTDLTPDHYLVTCDLGTDQVITYDLDQEGKLSKLYTYHSKPGAGSRHIIFHNHYKIAYLICELNSTIEVLIYDGVGEFERMQVISTLPEAYEGFNGTAAIHLSKDGKYLYASNRGHDSIAVYTILADGSLELLEIVPTHGQTPRDFDLTPDQKFLIVVHQDSDNATVFKRNCDNGRLAELSNDFHVPEAVCIRFAP | not soluble
4 | MAKKKKKKSFNVTRPTDPPVYPVTVPILGHIIQFGKSPLGFMQECKRQLKSGIFTINIVGKRVTIVGDPHEHSRFFLPRNEVLSPREVYSFMVPVFGEGVAYAAPYPRMREQLNFLAEELTIAKFQNFVPAIQHEVRKFMAANWDKDEGEINLLEDCSTMIINTACQCLFGEDLRKRLDARRFAQLLAKMESSLIPAAVFLPILLKLPLPQSARCHEARTELQKILSEIIIARKAAAVNKDSSTSDLLSGLLSAVYRDGTPMSLHEVCGMIVAAMFAGQHTSSITTTWSMLHLMHPANVKHLEALRKEIEEFPAQLNYNNVMDEMPFAERCARESIRRDPPLLMLMRKVMADVKVGSYVVPKGDIIACSPLLSHHDEEAFPEPRRWDPERDEKVEGAFIGFGAGVHKCIGQKFGLLQVKTILATAFRSYDFQLLRDEVPDPDYHTMVVGPTASQCRVKYIRRKAAAAHHHHHHHH | soluble
5 | MGHHHHHHSHMASKKPDKTYEEMVKEVERLKLENKTLKQKVKSSGAVSSDDSILTAAKRESIIVSSSRALGAVAMRKIEAKVRSRAAKAVTEQELTSLLQSLTLRVDVSMEETTVGASGGIGPSSQTETKKRRPRSKSRHRHDHE | not soluble
6 | FFALDYKRTEYVQYEDDEYYYYVKAVPKLNVASEDVRIKHINAKKTKKTSDIRDMKKTSSHRAESGYQAASAEEDDDILFYDNDDK | not soluble
7 | MGSDKIHHHHHHMVATENRMLMEIAAEISAREATLGFQEVKTKSRSAGLTAAFDIASVFFSSGCNVVVAFDRFASNWSDHSDHVDYAAQVAGFGASMLAYTVRRGQFDTAVRDIRDIKSEVDIPILLHDPIIDPYQIHEARVMGIDALQFPVWAMEQARLESLVDRTESLGMTAIVSVRNHEEAHRAVDAGATVVAIDITGYTGSLTLPEAFSGITQFMPKEVARIVLGGCSSPKELMRFARHSADAIFVPHADLATTKSLVTAGMHPACPSR | not soluble
8 | SLTGKKAEEEYLYQLEQLNQLFTKTEALEESKIFYKNIKFERGLFASHIQDQIEIHKANETIIIPLSSTLYHGPLPLDRVAKLNFVPAIFSSQTLLGKNATTQAFFDITESEKPLQLNFAMNYSLSGNAELKLASGQYHNEQSKTDFDWSNVVLNIDLNQNTPNNYVLSVDTFNSNAPNHAVSTASSIKIKDLVVQGSLQSTKWPFIYSGNINSKIGYFEQNTESAESGEKFSLIQKNSQANLTTQVEGDTVNIINKTNLDELHINGNNLGKVTNNVEFNHIDGNALQELLNILVAIGKADSECLYLKHWCKNYNKQAWPLRIISLKLSLPLFLFLMKKAKWHWI | not soluble
9 | MNIAELYGKMGKHSWRIMDAIFKNLWDYEYVPLQLISSHARIGEEKARNILKYLSDLRVVQNRQKDYEGSTFTFIGLSLYSLHRLVRSGKVDAIGKLMGEGKESAVFNCYSEKFGECVVKFHKVGHTSFKKVKEKRDYGDLHFSVLAIRSARNEFRALQKLQGLAVPKVYAWEGNAVLMELIDAKELYRVRVENPDEVLDMILEEVAKFYHRGIVHGDLSQYNVLVSEEGIWIIDFPQSVEVGEEGWREILERDVRNIITYFSRTYRTEKDINSAIDRILQE | soluble
10 | MNTFQMRDKLKERLSHLDVDFKFNREEETLRIYRTDNNKGITIKLNAIVAKYEDKKEKIVDEIVYYVDEAIAQMADKTLESISSSQIMPVIRATSFDKKTKQGVPFIYDEHTAETAVYYAVDLGKSYRLIDESMLEDLKLTEQQIREMSLFNVRKLSNSYTTDEVKGNIFYFINSNDGYDASRILNTAFLNEIEAQCQGEMLVAVPHQDVLIIADIRNKTGYDVMAHLTMEFFTKGLVPITSLSFGYKQGHLEPIFILGKNNKQK | not soluble
11 | MAHHHHHHMLQEYTGERCVSYRVNPQRGGCVETVAEVDAQDFFTEPGGLVTSPTTPSTPAGSTSARQARRRVVTTLERILLPDGYPSSVTEDLLPFALWDLAQVLAKNVTATLSTRAVLLGVGVGESKADLTSATLSWMMQDGTRMIGSVVFAPLIPQGLECRAKTWQLVADFTTDIANLLELCAPWLPGGQTTFRVVLVAASVVKALGSVCRNCTRASFTRHFALRNNAADIAAKASTRSSVGSFIGLVLGVAVAYIVPATSRSLNLVVFALGSVLHIFASYRSVRGVQLKHLNAPRLEWCLVQYSLFEAKVLIASKKDSGPLSVMPILDVSPRSANAAERLLILPSLRAVPPPSDSFYDSVRGFLCRYCFPPTLTLRIHCGASLFRLLQHQRGLTTRCKHELVQQVESALASRGIALLVDDVDMTYYVILPEYFTVEGVPAMWVRYKRQYGDDLTCMEAKQRQSAAARAAQRRQDGAASLSPSGAAVAAPDAGHGLDEAGRRAAQAEAELERLQKERVVVPPHILPLAYRQLWAYFYAFMHYRAVRLRREGPLTHAKDVLEGLHKNRSLECQRLHIITALRADGTLEAGHSDASDVPHSPAQFEEITSPASTTSDVPLERRVVPALATRAGGDDGDDGDNTAAPSYDGLHPQFIEFVRALRMTGWELDELLVGNEGYTTVVHYL | not soluble
12 | MGSDKIHHHHHHLRLQLSTWPEVADYLSTRRGVIIPIGSTEQHGPSGLIGTDAITAEVVSWRAGEVLDTLVAPTIAVGMAHHHMAFPGSMTLRPSTLIAVIRDTILALSSHGFTRFLFVNGHGGNIPSIQSAFYEAYEEMRVHHGDGAPDIACQLCSWFSSPAVEALAAEAFGDAEGSHATPSEVSVTWHAYPDQQRTPVLDPPVAPQGRFTDSRDFRRAFPDGRIGSNPALATPELGGRFVEVAVDYIATTYGDFLKG | not soluble
13 | MSVVGEERKRTILEKVEFKGKVKVSELAREFAVSTETIRRYLEELDREKKLKKVYGGAVQLPGAGVEAPMLEREMLHIEEKKRIGYKAATFVEDGDVIAIDDGSTPLQMVPYLVHRKNLTIVTSSFPVATQLISSINKKMFHGEVLFIGGKVSPKHSRVSGSISQQVIQQFHFHKAFVSIDGLLPSFGVSSFELEKAKLSEAMMKLAEKTYILCDHTKVGVKGNYRIAAISRIQHVICDKKMPYSFEEELMKHNIQWTVCLEHHHHHH | soluble
14 | MSLNRQSKAAVPALREISPVKQQVSEEKKEIQEDSSILVDLKGAVQKEGVYKLTASSRVRDVIELAGGLTSEADKHAINFAEKLTDEQVVYVPKQGEEISVLPRSLVSGKKETASKDQSKVHINKASLEELQHIPGIGAKRAQDIIDMRDKLGGFKALEDLRQVSGIGEKTLEKLKDDIFLDEGHHHHHH | soluble
15 | QVQLVESGGGSVQAGGSLRLSCAASGFTYSRKYMGWFRQAPGKEREGVAAIFIDNGNTIYADSVQGRFTISQDNAKNTVYLQMNSLKPEDTAMYYCAASSRWMDYSALTAKAYNSWGQGTQVTVSSRGRHHHHHH | soluble
16 | MIVSILGAGAMGSALSVPLVDNGNEVRIWGTEFDTEILKSISAGREHPRLGVKLNGVEIFWPEQLEKCLENAEVVLLGVSTDGVLPVMSRILPYLKDQYIVLISKGLIDFDNSVLTVPEAVWRLKHDLRERTVAITGPAIAREVAKRMPTTVVFSSPSESSANKMKEIFETEYFGVEVTTDIIGTEITSALKNVYSIAIAWIRGYESRKNVEMSNAKGVIATRAINEMAELIEILGGDRETAFGLSGFGDLIATFRGGRNGMLGELLGKGLSIDEAMEELERRGVGVVEGYKTAEKAYRLSSKINADTKLLDSIYRVLYEGLKVEEVLFELATFK | soluble
17 | MGSDKIHHHHHHATPAEIPFDAVLAGQTPMLFKGLVRDWPLVQAGLGSPQAARDYIRAHDRGVPVVGYTGDPAIKGRFFYNDTLTGLNFKAERAPLEAFLGRIEAVEGQENAPAIYIGSTDLDAYFPSLKAENDLGLGPEVYGPQPPMAGIWLGNRTVAAAHYDMSNNIAVCAVGRRRFTLFPPDQVANLYPGPLEPTPGGQVVSMVDFETPDFDRHPRFREALASAQVAEMEPGDVLVYPALWWHQVEALDGFNVLMNYWWNATPAFVDTPMTTLLHGLLSLRDRPDFEKQGWKALFDYYVFGPAERAGAHLPDDARGPLGALDDLKARRLRAWLLDRLNR | not soluble
18 | MGHHHHHHSHEVFKNAQPPIRDATDLRENMQNAVVSFKELCGLSSVANLMQCMLAVSPRFLGPDNTPLVVLNLSEQYPTMELQGIVPEVLKKIVTTYDMMIQSLKALIENADAVYEKIVHCQKAAMEFHEHLHSIGTKEGLKERKLQKAVESFTWNITILKGQADLLKYAKNETLENLKQIHFAAVSCGLNKPGTENADVQKPRRSLEVIPEKANDETGE | not soluble
19 | MSAVKKQRIDLRLTDDDKSMIEEAAAISNQSVSQFMLNSASQRAAEVIEQHRRVILNEESWTRVMDALSNPPSPGEKLKRAAKRLQGM | soluble
20 | MPIRHCIVHLIEKKPDGTPAVLHARDSELAESQAIENMLADLNESYNAKQGKAWGLFHPESGAHPFSGWLKEYLDGGKDFTAFSRVSVEHLQKLMEESNLSVGGHVLFAHYQQGMTDYLAIALLHHSDGVAVNAELDVTPSRHLDLGQLHLAARINISEWQNNKQSKQYISFIKGKNGKKVSEYFRDFIGCQEGVDGPGETRTLLKAFSDFVESEDLPEESAREKTKTLIDYASSQSKMGEPMGLEALSELIDENQPRAFYDHIRNKDYGLSPEIPADKRTLNQFRRFTGRAEGLSISFEAHLLGDKIEYDETAGTLIIKGLPTQLTDQLKRRLEHHHHHH | not soluble
21 | VDSVFIVGHRKLDMDALGASVGMQFFASNIVNASYVVYDPNDMNSDIERAIDYLQEDGETRLVSVERAFELITQNSLLVMVDHSKTALTLSKEFFNKFADVIVVDHHRRDEDFPKNAVLSFIESGASSASELVTELIQFQQAKDKLSRSQASILMAGIMLDTRNFASNVTSRTFDVASYLRGLGSNSMAIQKISATDF | not soluble
22 | MIEFDNLTYLHGKPQGTGLLKANPEDFVVVEDLGFEPDGEGEHILVRILKNGCNTRFVADALAKFLKIHSREVSFAGQKDKHAVTEQWLCARVPGKEMPDLSAFQLEGCQVLEYARHKRKLRLGALKGNAFTLVLREVSNRDDVEQRLIDICVKGVPNYFGAQRFGIGGSNLQGALRWAQTNTPVRDRNKRSFWLSAARSALFNQIVAERLKKADVNQVVDGDALQLAGRGSWFVATTEELAELQRRVNDKELMITAALPGSGEWGTQREALAFEQAAVAAETELQALLVREKVEAARRAMLLYPQQLSWNWWDDVTVEIRFWLPAGSFATSVVRELINTTGDYAHIAELEHHHHHH | soluble
